In the data set the target is T1, recombinant uracil-DNA-glycosylase inhibitor (rUgi), P14739.
T1 chain: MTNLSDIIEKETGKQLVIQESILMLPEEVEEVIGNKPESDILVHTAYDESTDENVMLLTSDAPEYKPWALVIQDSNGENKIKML

B1: uracil-DNA-glycosylase (UDG) (protein)
chain: ANELTWHDVLAEEKQQPYFLNTLQTVASERQSGVTIYPPQKDVFNAFRFTELGDVKVVILGQDPYHGPGQAHGLAFSVRPGIAIPPSLLNMYKELENTIPGFTRPNHGYLESWARQGVLLLNTVLTVRAGQAHSHASLGWETFTDKVISLINQHREGVVFLLWGSHAQKKGAIIDKQRHHVLKAPHPSPLSAHRGFFGCNHFVLANQWLEQRGETPIDWMPVLPAESE
B1: the “digestion of DNA-dUTP by UDG 1/35 (agarose gel), without and after 10 min at 90 C” value was “the two dilutions of Ugi indeed inhibit the digestion of DNA by UDG (lanes D and G); after a treatment of 10 minutes at 90° C., the Ugi remains active because it still inhibits the UDG (lanes J and M)”; the “digestion of DNA-dUTP by UDG 1/35, 60 min at 37 C (agarose gel)” value was “the two dilutions of Ugi indeed inhibit UDG (lanes D and G)”; the “digestion of DNA-dUTP by UDG (agarose gel), UDG 1/25” value is reported as “at the highest concentration of UDG, the UDG activity may be inhibited by Ugi at 1/20 000 but not at 1/30 000”; the “digestion of DNA-dUTP by UDG (agarose gel), UDG 1/50” value was “at the lowest concentration of UDG, the UDG activity is inhibited both by Ugi at 1/20 000 and at 1/30 000”.

Source of the values: US20090170166A1.
